In patent US6841359 (GENERAL HOSPITAL, dated 2005):
Where no end group is shown, it is not given here. The star is where a group is joined. puromycin = COc1ccc(C[C@H](N*)C(=O)N[C@H]2[C@@H](O)[C@H](n3cnc4c(N(C)C)ncnc43)O[C@@H]2CO)cc1; DNA oligonucleotide = not defined here

Legend:
[1] = biological target: T1, streptavidin (UniProt P22629 37-163, limits assumed); test: streptavidin column-binding assay, 35S DNA-tagged peptide on immobilized streptavidin, biotin elution
T1 construct: The same protein was used free (EMSA, Biacore, SBIA) and immobilized on a matrix or plate; also called immobilized streptavidin; Ultralink immobilized streptavidin plus
T1 sequence (P22629 37-163 limits assumed): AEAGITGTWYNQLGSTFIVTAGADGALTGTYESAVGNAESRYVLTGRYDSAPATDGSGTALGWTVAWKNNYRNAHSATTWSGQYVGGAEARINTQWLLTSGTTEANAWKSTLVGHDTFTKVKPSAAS
Experimental: (§1) The resulting purified DNA-tagged peptides (DTP) were analyzed in a streptavidin column-binding assay, in which ~500 pM ^35S-labeled DTP were mixed with 50 µL of the streptavidin matrix in streptavidin-binding buffer, in a total volume of 300 µL, and incubated for 10 minutes at room temperature with agitation. Then, the contents were loaded onto a chromatography column. The column was drained and washed with 80 column volumes of streptavidin-binding buffer, and then eluted with three consecutive aliquots (3 column volumes each) of streptavidin-binding buffer plus 2 mM biotin over a 15 minute period. All fractions (flow-through, washes, elutions, and irreversibly bound counts) were analyzed by scintillation counting to determine the fraction of DTP that bound streptavidin and eluted with biotin (Table 1).

[2] = biological target: T1, streptavidin; test: streptavidin column-binding assay: 35S-labeled DNA-tagged peptide bound to immobilized streptavidin and eluted with biotin
Experimental: as §1

[3] = biological target: T1, streptavidin; test: EMSA, DNA-tagged peptide with free streptavidin; SD 5.7, n=4
Experimental: (§2) The dissociation constants of the selected peptides for streptavidin were measuring using an electrophoretic mobility shift assay (EMSA). In this assay, DTP's were incubated with varying amounts of pure streptavidin (Pierce Immunopure Streptavidin, Rockford, Ill.) in streptavidin-binding buffer plus 5% glycerol to increase the density of the solution so that it could collect at the bottom of the gel well. After incubating at room temperature for 20 minutes, the reactions mixtures were moved into the cold room, where they remained for 10 minutes before being carefully loaded onto a 10% polyacrylamide:bisacrylamide (37.5:1, National Diagnostics, Atlanta, Ga.) gel (thickness 0.7 mm, height 16 cm, width 18 cm) containing 2×TBE, 0.1% Triton X-100 and 5% glycerol. The gel, which had been pre-run for 30 minutes at 13 watts, and the running buffer were pre-cooled to 4° C. Then, the gel was run in the cold room at 13 watts, which increased the temperature of the gel to about 20° C. The gel was run for 45 to 120 minutes, depending on the mobility of the particular DTP. Then, the gel was fixed in 10% acetic acid and 10% methanol for 15 minutes, transferred to electrophoresis paper (Ahlstrom, Mt. Holly Springs, Pa.), dried, and analyzed using a PhosphorImager (Molecular Dynamics, Sunnyvale, Calif.).

[4] = biological target: T1, streptavidin; test: streptavidin column-binding assay, M1 (HPQ to HGA) compared to C4
Experimental: as §1

[5] = biological target: T1, streptavidin; test: EMSA, DNA-tagged peptide with free streptavidin; SD 22, n=6
Experimental: as §2

[6] = biological target: T1, streptavidin; test: EMSA, DNA-tagged peptide with free streptavidin; SD 0.91, n=8
Experimental: as §2

| Binder | % binding and eluting [1] [%] | % binding [2] [%] | other results |
| --- | --- | --- | --- |
| SB4 (C-terminus joined through puromycin to a short DNA oligonucleotide (DNA-tagged peptide); 35S-methionine label, also called peptide SB4) peptide: MDEKTHWGISTWRGEPLLHHPQAGRLPLDRRRARHRRILGAEPGGVDHGLRLELLDDHRPLVPDHHPQRGPLQRGDLPQVVPLVRLRHAHVLGLGLAAATIT | 49 | – | – |
| SB7 (C-terminus joined through puromycin to a short DNA oligonucleotide (DNA-tagged peptide); 35S-methionine label, also called peptide SB7) peptide: MDEKTHWFGTLNSFPTHWMSAVGNGKIDCSFNMNLSLNHWLSSGHPDGALDDQLHPQGDALVGRDDGVVQALRLEGQHQHRRLAQRRADRHRQLVWRLPPS | 28 | – | – |
| SB19 C-terminal truncation construct C2 (C-terminus joined through puromycin to a short DNA oligonucleotide (DNA-tagged peptide); 35S-methionine label) peptide: MDEKTTGWRGGHVVEGLAGELEQLRARLEHHPQGQREPLVQEVEDVDEGLVQDLHGVVAGLLDPVEMMSGGCKLG | – | 88 | – |
| SB1 (C-terminus joined through puromycin to a short DNA oligonucleotide (DNA-tagged peptide); 35S-methionine label, also called peptide SB1; clone SB1) peptide: MDEKTHCTISMNGAVPLVPHHHPQGDPLRLLHRPQPALLVRHPQGDLVALVEHHEGVDRGLVALPELHAEELGEPVGDLVQGPVEQVQGVVDALVWRLPPS | 86 | – | Kd [3]: 50 nM |
| MDEKTTGWRGGHVVEGLAGELEQLRARLEHHGAGQREPMMSGGCKLG-{puromycin-DNA oligonucleotide} (reading uncertain; also: 35S-methionine label, also called construct M1) [SB19 point mutated peptide M1] | – | 0.065 | fold reduction of activity against construct C4 [4]: ~1000 fold |
| MDGHVVEGLAGELEQLRARLEHHPQGQREPMMSGGCKLG (One member of the group m27; Assayed as a DNA-tagged peptide) [N1] | – | 69 | – |
| SB5 (C-terminus joined through puromycin to a short DNA oligonucleotide (DNA-tagged peptide); 35S-methionine label, also called peptide SB5) peptide: MDEKTHWVNVYHPQGDLLVRGHGHDVEALHDQGLHQLDLLVGPPPEVVRALRGEVLGGLRRLVPLDHPQGEALDQARQRPQHLLELHHRALPPALVWRLPPS | 72 | – | Kd [5]: 110 nM |
| N2 (One member of the group m27; Assayed as a DNA-tagged peptide) peptide: MDEGLAGELEQLRARLEHHPQGQREPLVQEVEDVDEGLVQDLHGVVAGLLDPVEKLLTDWFKKFKNVSKDCKMTFYLEMYDWSGGCKLG | – | 30 | – |
| SB19 C-terminal truncation construct C1 (C-terminus joined through puromycin to a short DNA oligonucleotide (DNA-tagged peptide); 35S-methionine label) peptide: MDEKTTGWRGGHVVEGLAGELEQLRARLEHHPQGQREPLVQEVEDVDEGLVQDLHGVVAGLLDPVEKLLTDWFKKFKNVSMMSGGCKLG | – | 87 | – |
| SB2 (C-terminus joined through puromycin to a short DNA oligonucleotide (DNA-tagged peptide); 35S-methionine label, also called peptide SB2; clone SB2) peptide: MDEKTHCFHPGDHLVRLVEELQALAEGLQRQGGRQPHRLPRRRPHHLQLLLDEAHPQAGPLRERAHQVDGRLLLQHHPQGDRLLQQPQDHPLELVWRLPPS | 48 | – | Kd [6]: 4.8 nM |
| SB3 (C-terminus joined through puromycin to a short DNA oligonucleotide (DNA-tagged peptide); 35S-methionine label, also called peptide SB3) peptide: MTRRPTASSSSCVRHLLLRQGEHGHQALEDRDKARHVRLVEGDVEVLGGLDRLARARHEALHPQAGLVHLPLHGGDLGGHLRLVLEAHPQGDRLGLAVHHH | 20 | – | – |
| MDEAHPQAGPVDQADARLVQQGALQHHPQGDRMMSGGCKLGTGY-{puromycin-DNA oligonucleotide} (reading uncertain; also: C-terminus joined through puromycin to a short DNA oligonucleotide (DNA-tagged peptide), 35S-methionine label, also called non-selected clone; control peptide) [Non-selected peptide with two HPQ motifs spaced by 19 residues] | 0.16 | – | – |
| SB6 (C-terminus joined through puromycin to a short DNA oligonucleotide (DNA-tagged peptide); 35S-methionine label, also called peptide SB6) peptide: MDEKTHWLNNFEELLARLDGLREGEDHPLVLRHHPQGDGLLDQPLGRHRALDGEVREGDRPLDQGGEEDLGALVDDDGEVLDGLVHVGVHVHDPLVCGCHHH | 49 | – | – |
| SB8 (C-terminus joined through puromycin to a short DNA oligonucleotide (DNA-tagged peptide); 35S-methionine label, also called peptide SB8) peptide: MDEKTHCTIELNFSFTHWKLHHHPQGDALLDDGVRPHHPLADEGGGLDQGLGHRRGVVAERLARRDPEVLEGLVERHRGLVPRLRHGGERHAEPLVWRLPPS | 27 | – | – |
| SB19 C-terminal truncation construct C3 (reading uncertain; also: 35S-methionine label) peptide: MDEKTTGWRGGHVVEGLAGELEQLRARLEHHPQGQREPLVQEVEDVDEGLVQMMSGGCKLG-{puromycin-DNA oligonucleotide} | – | 89 | – |
